We go through seven molecules from patent US20210246166A1 (Bayer, published 2021).

Assay [1] deals with T1, recombinant human MASP1 active protease (amino acids 297-699, C-terminal His Tag) (human, UniProt P48740 297-699).
T1 sequence: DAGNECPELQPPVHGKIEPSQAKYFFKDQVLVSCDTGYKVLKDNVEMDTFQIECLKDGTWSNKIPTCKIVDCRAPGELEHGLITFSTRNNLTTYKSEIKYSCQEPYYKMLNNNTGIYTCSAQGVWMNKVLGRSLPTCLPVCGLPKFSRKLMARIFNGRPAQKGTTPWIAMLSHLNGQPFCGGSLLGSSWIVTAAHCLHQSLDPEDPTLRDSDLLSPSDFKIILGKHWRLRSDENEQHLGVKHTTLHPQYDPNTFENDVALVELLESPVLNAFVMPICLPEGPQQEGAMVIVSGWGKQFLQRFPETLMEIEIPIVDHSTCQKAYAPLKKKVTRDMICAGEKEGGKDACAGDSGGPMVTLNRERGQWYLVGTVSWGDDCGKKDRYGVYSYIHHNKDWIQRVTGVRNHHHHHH
Kind of assay: cell-based or functional assay.

Assay [2] deals with recombinant human MASP2 active protease (amino acids 297-686, C-terminal His Tag) (human, UniProt O00187 297-686). In words: cell-based or functional assay.
recombinant human MASP2 active protease (amino acids 297-686, C-terminal His Tag), sequence (O00187 other isoform, or with tags, fused parts or gaps limits assumed): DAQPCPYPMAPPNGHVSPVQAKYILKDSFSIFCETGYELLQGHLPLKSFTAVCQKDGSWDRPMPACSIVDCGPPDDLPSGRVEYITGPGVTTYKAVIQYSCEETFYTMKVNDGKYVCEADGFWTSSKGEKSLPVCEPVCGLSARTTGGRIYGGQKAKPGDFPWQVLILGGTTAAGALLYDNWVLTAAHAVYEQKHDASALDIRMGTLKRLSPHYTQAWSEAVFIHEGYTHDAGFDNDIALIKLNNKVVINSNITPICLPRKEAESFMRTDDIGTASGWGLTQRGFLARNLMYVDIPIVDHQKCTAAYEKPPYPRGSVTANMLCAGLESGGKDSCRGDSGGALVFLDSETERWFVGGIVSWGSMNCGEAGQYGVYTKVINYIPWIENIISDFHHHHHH

Bridge positions count the residues as written; N and C are the ends. Square brackets hold non-standard residues; d marks the D form. Ends that are not written are not given here. Oic = O=C(O)[C@@H]1C[C@@H]2CCCC[C@@H]2N1; tBuAla = CC(C)(C)C[C@H](N)C(=O)O; Pen = CC(C)(S)[C@H](N)C(=O)O; NMeC = CN[C@@H](CS)C(=O)O; NMeA = CN[C@@H](C)C(=O)O; Sar = CNCC(=O)O

B1: ((N-Me)A)-IC+SRSLP-(Oic)-I-(Pen)+IP-OH (peptide)
peptide: [NMeA]ICSRSLP[Oic]I[Pen]IP-OH
modifications: disulfide 3-11; N-terminus assumed
SMILES: CC[C@H](C)[C@H](NC(=O)[C@H](C)NC)C(=O)N[C@H]1CSSC(C)(C)[C@@H](C(=O)N[C@H](C(=O)N2CCC[C@H]2C(=O)O)[C@@H](C)CC)NC(=O)[C@H]([C@@H](C)CC)NC(=O)[C@@H]2C[C@@H]3CCCC[C@@H]3N2C(=O)[C@@H]2CCCN2C(=O)[C@H](CC(C)C)NC(=O)[C@H](CO)NC(=O)[C@H](CCCNC(=N)N)NC(=O)[C@H](CO)NC1=O
B1: the “human MASP1 IC50” value in assay [1] is 2.9 nM. The “human MASP2 IC50” value in assay [2] came to 200 nM.

B2: AIC+SRSLP-(Oic)-I-(Pen)+IPQ-OH (peptide)
peptide: AICSRSLP[Oic]I[Pen]IPQ-OH
modifications: disulfide 3-11; N-terminus assumed
SMILES: CC[C@H](C)[C@H](NC(=O)[C@H](C)N)C(=O)N[C@H]1CSSC(C)(C)[C@@H](C(=O)N[C@H](C(=O)N2CCC[C@H]2C(=O)N[C@@H](CCC(N)=O)C(=O)O)[C@@H](C)CC)NC(=O)[C@H]([C@@H](C)CC)NC(=O)[C@@H]2C[C@@H]3CCCC[C@@H]3N2C(=O)[C@@H]2CCCN2C(=O)[C@H](CC(C)C)NC(=O)[C@H](CO)NC(=O)[C@H](CCCNC(=N)N)NC(=O)[C@H](CO)NC1=O
For B2, the “human MASP1 IC50” value in assay [1] amounted to 3 nM. The “human MASP2 IC50” value in assay [2] was determined as 140 nM.

B3: AIC+SRSLP-(Oic)-I-(Pen)+I-OH (peptide)
peptide: AICSRSLP[Oic]I[Pen]I-OH
modifications: disulfide 3-11; N-terminus assumed
SMILES: CC[C@H](C)[C@H](NC(=O)[C@H]1NC(=O)[C@H]([C@@H](C)CC)NC(=O)[C@@H]2C[C@@H]3CCCC[C@@H]3N2C(=O)[C@@H]2CCCN2C(=O)[C@H](CC(C)C)NC(=O)[C@H](CO)NC(=O)[C@H](CCCNC(=N)N)NC(=O)[C@H](CO)NC(=O)[C@@H](NC(=O)[C@@H](NC(=O)[C@H](C)N)[C@@H](C)CC)CSSC1(C)C)C(=O)O
For B3, the “human MASP1 IC50” value in assay [1] stood at 3 nM. The “human MASP2 IC50” value in assay [2] came out at 360 nM.
With [Sar]ICSRSLP[Oic]I[Pen]IP[PEG4‑CH2CO2H (15 atoms)]-NH2 (disulfide 3-11) [((N-Me)G)-IC+SRSLP-(Oic)-I-(Pen)+IP-(PEG4-CH2CO2H (15 atoms))-NH2], the “human MASP1 IC50” value in assay [1] was 2.9 nM. Also, in assay [2], the “human MASP2 IC50” value amounted to 89 nM.

B4: AIC+SRSLP-(Oic)-I-(Pen)+IPE-OH (peptide)
peptide: AICSRSLP[Oic]I[Pen]IPE-OH
modifications: disulfide 3-11; N-terminus assumed
SMILES: CC[C@H](C)[C@H](NC(=O)[C@H](C)N)C(=O)N[C@H]1CSSC(C)(C)[C@@H](C(=O)N[C@H](C(=O)N2CCC[C@H]2C(=O)N[C@@H](CCC(=O)O)C(=O)O)[C@@H](C)CC)NC(=O)[C@H]([C@@H](C)CC)NC(=O)[C@@H]2C[C@@H]3CCCC[C@@H]3N2C(=O)[C@@H]2CCCN2C(=O)[C@H](CC(C)C)NC(=O)[C@H](CO)NC(=O)[C@H](CCCNC(=N)N)NC(=O)[C@H](CO)NC1=O
As for B4, in assay [1], the “human MASP1 IC50” value came out at 2.9 nM. Further, the “human MASP2 IC50” value in assay [2] stood at 130 nM.
For the molecule AICSRS[tBuAla]PP[(2S)‑2‑(Amino)‑2‑((1S,3R)-3-hydroxycyclohexyl)acetic acid][NMeC]IPD-NH2 (disulfide 3-11) [AIC+SRS-((tBu)A)-PP-((2S)-2-(Amino)-2-[(1S,3R)-3-hydroxycyclohexyl]acetic acid)-((N-Me)C)+IPD-NH2], the “human MASP1 IC50” value in assay [1] came out at 3 nM. The “human MASP2 IC50” value in assay [2] stood at 330 nM.

B5: AIC+SRSLP-(Oic)-I-(Pen)+IP-OH (peptide)
peptide: AICSRSLP[Oic]I[Pen]IP-OH
modifications: disulfide 3-11; N-terminus assumed
SMILES: CC[C@H](C)[C@H](NC(=O)[C@H](C)N)C(=O)N[C@H]1CSSC(C)(C)[C@@H](C(=O)N[C@H](C(=O)N2CCC[C@H]2C(=O)O)[C@@H](C)CC)NC(=O)[C@H]([C@@H](C)CC)NC(=O)[C@@H]2C[C@@H]3CCCC[C@@H]3N2C(=O)[C@@H]2CCCN2C(=O)[C@H](CC(C)C)NC(=O)[C@H](CO)NC(=O)[C@H](CCCNC(=N)N)NC(=O)[C@H](CO)NC1=O
Regarding B5, in assay [1], the “human MASP1 IC50” value was determined as 2.9 nM. Besides, the “human MASP2 IC50” value in assay [2] is 160 nM.
